Data published in the nanobody polyreactivity screen of Harvey et al. (2022).

Test: yeast display, Sf9 membrane polyspecificity reagent, FACS + sequencing; frameworks hold sequencing errors
How it was run: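 Sorting gates, low and high (top ~1%), were placed on anti-HA fluorescence to track expression and on streptavidin fluorescence to track reagent binding. A clone's polyreactivity label is taken from the gate it came out of. The reagent was 10% biotinylated, detergent-solubilized Sf9 membrane, applied for 1 hour at 4 °C to galactose-induced yeast display cells.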

Sequence | polyreactivity (PSR sort gate)
QVQHVESGGGLVQAGGSLRLSCAASGSTFWRYAMGWYRQAPGKERELVAAISTSGGSTRYADSVKGRFTISRDNAKNTVYFQMKSLKPEDTEVYYCADRSVSSTSYGYWGQGTQVTVSS | high polyreactivity
QVQHVESGGGLVQAGGSLRLSCAASGSTFYIYAMGWYRQAPGKERELVATITDGGSTNFADSVKGRFTISRDNAKNTVYLQMNSLKPEDTAVYYCNANVWTGYDYWGLGTQVTVSS | low polyreactivity
QVQHVESGGGLVQAGGSLRLSCAASGSTFYLYAMGWYRQAPGTERELLAAITYSGDRTRYADSVKGRFTISRDNAKNTVYLQMNSLKPEDTAVYYCAAPYVGARNAYRMCYWGQGTQVTVSS | high polyreactivity
QVQHVESGGGLVQAGGSLRLSCAASGSTISNNAMGWYRQAPGKERELVAGINSSGGRTYYADSVKGRFTISRDNAKNTVYLQMNSLKPEDTAVYYCNADNFRRYGYWGQGTQVTVSS | high polyreactivity
QVQHVESGGGLVQAGGSLRLSCAASGSTSDTNVMGWYRQDPGKERELVAAISYDDDRTYYADSVKGRFTISSDNAKNTVYLQMNSLKPEDTAVYYCATADDYPGDDYLEGGYWGQGTQVTVSS | low polyreactivity
QVQHVESGGGLVQAGGSLRLSCAASGSTYGYYAMGWYRQAPGKERELVAAITSGGTTNYADSVKGRFTISRDNAKNTVYLQMNSLKPEDTAVYYCNAVGTFVRFWTDGRDGVTYDYWGQGTKVTVSS | low polyreactivity
QVQHVESGGGLVQAGGSLRLSCAASGTTFVLYAMGWYIQAPGKERELVAAITWSGGITYYADSVKGRFTISRDNAKNTVYLQMNSLKPEDTAVYYCNAEQKQYEKSYDYWGQGSQVTVSS | low polyreactivity
QVQHVESGGGLVQAGGSLRLSCAASGYTFRSNTMGWYRQAPGKERELVAAISGRGSSTYYADSVKGRFTISRDNAKNTVYLQMNSLKPEDTAVYYCAAQSKYYQYYSWGQGTQVTVSS | high polyreactivity
QVQHVESGGGLVQAGGSLRLSCAASGYTFYFYAMGWYRQAPGKERELVAAITGGGTTSYADSVKGRFTISRDNAKNTVYLQMNSLKPEDTAVYYCNVLFADKSDYWGPGTQVTVSS | low polyreactivity
QVQHVESGGGLVQAGGSLRLSCAASVRTLYYYAMGWYRQAPGKERELVAAISGGGRTYYADSVKGRFTISRDNAKNTVYLQMNSLKPEDTAVYYCASRYRKSGLDNYWGQGTQVTVSS | high polyreactivity
QVQHVESGGGLVQAGGSLRLSCAATGRIFKYYARGWYTQAPGKERELVAAISSTGGRTYYADSVKGRFTNSRDNAKNTVYLQMNSLKPEDTAVFSCAADYAWGDPGRARFGYWGQGTQVTVSS | high polyreactivity
QVQHVESGGGLVQAGGSLRLSCAAYGSIFVYYAMGWYRKAPGKERDLFAAISSSGDTTYYADSVKGRYTISRDNAKNTVYLQMNSLKPEDTAVYYCAARVRVYRHASNYYWGQCTQVTVSS | high polyreactivity
QVQHVESGGGLVQAGGSLRLSCASSGRTFYEYAMGWYRQAPGKERELVAGITSGGSTNYADSVKGRFTISRDNAKNTVYLQMNSLKPEDTAVYYCAASYWGYEYDYWGQGTQVTVSS | low polyreactivity
QVQHVESGGGLVQAGGSLRLSCDASGRIFAKYAMGWYRQAHGKERELVAGISWGGGSTYYADSVKGRFTISRDNAKNTVYLQMNSLKPEDTAVYYCAARIPKQRDVRGSGMNYWGQGTQVTVSS | high polyreactivity
QVQHVESGGGLVQAGGSLRLSCGASGITLYGYAMGWYRQAPGKEREFVAAISRSGDRTYYADSVKGRFTISRDNAKNTVYLQMNSLKPEDTAVYYCNAWRYDYWGQGTQVTVSS | high polyreactivity
QVQHVESGGGLVQAGGSLRLSGAASGSTFPTIAMGWNRQAPGKEREWVADITIRAGGTSYADSVKGRFTISRDNAKNSVYLQMNSLKPQDTAVFYCARSKSSELKRLLYDSWGEGTQVTVSS | low polyreactivity
QVQHVESGGGLVQAGGSLRLSSAASGSIFTFYAMGWSRQAPGKEMELVADITGRGSRTYYADSVTGRFTISRDNAKNTVYLKMNSLKPEDTAVYYCAAGHDRYYQSEYGYWGQGTQVTVSS | high polyreactivity
QVQHVESGGGLVQAGGSLRLTCAASGRIYASNSKGWYRQETGKERELFATSRVGGGSTYYADSVKGRFTISRDNAKNTVYLQRNSLKQEDTAVYYWAASFRDDFPQRLDFWGQGTQVTVSS | low polyreactivity
QVQHVESGGGLVQAGGSLRLTCAASGSTSPTNVMGWYRQAPGKERELVAAISYSGGRTYYADSVKGRFTISRDNAKKTVYLQMNSLKPEDTAVYYCAARSLKRKYESWGQGTQVTVSS | high polyreactivity
QVQHVESGGGLVQAGGSLSLSCAASGFIFSAYAMGWYRRAAGKERKLVDAITRSGGITDYADSVKGRFTISRDIAKNTVYLQMNSLKPEDTADYYCAALRVQQVKSYYYWGQGTQVTVSW | high polyreactivity
QVQHVESGGGLVQAGGSRRLTCAASGYTFYKYAMGWYRQAPGKERELVAAISSSGGSTYYADSVKGRFTISRDNAKNTGYLHMNSLKPVDTAVYYCAAFVYSNDYDYWGQGTQVTVSS | high polyreactivity
QVQHVESGGGLVQAGRSLRLICAASGRNSKGYAMAWDRQAPGKERELVAAYADSVKGRFTIARDNAKNTVYLQMNSLKPEDTAVYYCNADYDQVSRVGYVYWAYYYWGQGTQVTVSS | low polyreactivity

Sequence | polyreactivity (PSR sort gate)
QVQHVESGGGLVQAGRSLRLSCAASGFTIVQYAMGWYRQAPGKERELVARISPIGGSTYYADSVKGRFTISRDNAKNTVYLQMNSLKPEDTAVYYCNALRGPVKYYYWGQGTQVTVSS | low polyreactivity
QVQHVESGGGLVQAGRSLRLSCAASGLIYPYVMGWYRQAPGKERELVAAISRSGGRTYYADSVKGRFTISRDNAKNTVYLQMNSLKPEDTAVYYCAAKVDVTGYFDYWGQGTQVTVSS | high polyreactivity
QVQHVESGGGLVQAGVSLRLSCAASGFTFGSNAMGRYRPAPGKERELVAAINYSGVRTYYADSVKGRFTISRDNAKNTVYLQMNSLKPEDTAVYYCAKQRSKPNSFDYWGQGTQVTVSS | high polyreactivity
QVQHVESGGGLVQARGSLRLSCAASGSTIKHYGMGWYRHAPGKERELVAAITSGGRTYYADSVKGRFTISRDNAKNTVYLQMNSLKQDDSAGYYCAALRVQQVKSYYYWGQGTQVTVSS | high polyreactivity
QVQHVESGGGLVQEGGSLRVSCAASGSIFGTNDMGWYRQAPGKERELVAAISSSGASTYYADSVKGRFTISRDNAKNTVYLQMNSLKPEDTAVYYCARGYTYQYSSFYYWGQGTQVTVSS | low polyreactivity
QVQHVESGRGLVQAGGSLRLSCAASGFIFRLYAMGWYRQAPGKERELVAAISRGGSTTYADSVKGRFTISRDNAKNTVYLQMYSLKPEDTAVYYCATEGDLVAYLYDYWGQGTQVTVSS | low polyreactivity
QVQHVESGVGLVQAGGSLRLSSAASGRTFSDNAMGWYRQAPGNERELVAAISRSGGRTYYADSVKGRFTISRDNAKNTVYLQMNSLKPEDTAVYYCAAAPSVSGTRLYEYWGQGTQVTVSS | high polyreactivity
QVQHVESRGGLVQAGGSLRLICAASGFILYYYAMGWYRQAPGKVREMVASISRRGGSTYYADSVKGRFTISRDNAKNTVYLQMNSLKPEDTAVYYCAATETTSRRFGYDYWGQGTQVTVSS | high polyreactivity
QVQHVESRGGLVQAGGSLRLICAASGFTFSSYAMGWYRQAPGKERELVASISWRGGIPYYADSVKGRFTISRDNAKNTVDLQMISLKPEDTAVYYCAAVPSYHSTSPFYYWGQGTQVTVSS | high polyreactivity
QVQHVESRGGLVQAGGSLRLSCAASGITLPKYAMGCYRQAPGKERELAAAISRRGGITYYADSVKGRFTISRDNAKNSVYLQMNSQKPEDTAVYYCAADRTDTRGFDYWGQGTQVTVSS | high polyreactivity
QVQHVESRGGLVQARGSLRLSCAASGRIFSPYAMGWYRQAPGKERELVAAITWSGGSTYYADSVKGRFTISRDNAMNTVYLQMNSLKQEDTAVYYCAADFYRRYYAWEYYYWGQGTQVTVSS | high polyreactivity
QVQHVESVGCLVQAAGSLPLSCAASGSTFSSYAMGWYRQAPGKERELVAAISTSGGSTYYADSVKGRFTISRDNAKNTVYLQMNSLKQEDTAVYYCYAGPSYYPFFWPDFEYWVQGTQVTVSS | high polyreactivity
QVQHVESVGGLVQAGGSLPLSGASSGFIFRKNAMGWYRQATGKEREFVAAISRRGGCTYYADSVKGRFTISRDNAKNTVYLQMNSLKPEDTAVYYCNAELYDVGSHEYDYWVQGTQVTVSS | high polyreactivity
QVQHVESVGGLVQAGGSLRLSCAASGFTFYGYAMGWYRHATGKERELVPAISQSGGSTTYADSVKGRFTISRDKAKNTVYVQMNSLKPEDTAVYYCAARYPYYWWRHVYGDVEYDFWGQGTQGTVSS | high polyreactivity
QVQHVESVGGLVQAGGSLRLSCAASGLIFLYNAMGWYRQAPGKVRELVAAITSSGGSTYYADSVKGRLTISRDYAKNTVYLQMNSLKPEDTAVYYCANRYQSYYYSHWGYRYYWGQGTQVTVSS | high polyreactivity
QVQHVESVGGLVQAGGSLRLSCAASGRTFGCYTMGWYRHATGTERELVAGISSSGGSTYYADSVKGRFTISRDNAKNTVYLQMNSLKPEDTAVYYCARETYPHGLYYRPYDYWGQGTQVTVSS | low polyreactivity
QVQHVESVGGLVQARGSLRLSCAASGSIFDLYAMGWYRQAPGKERELVAGISYSGGSTYYADSVKGRFTISRDNAKNTVYLQMNSLKPEETAVYYCATAYYYHGGYYYPYDDYWGQGTQVTVSS | low polyreactivity
QVQHVESVGRLVQAGGSLLLSCAASGSTFWIYAMGWKRQAPVKERELVAAISWRGGRTYYADSVKGRFTISRDNAKNTVYLQMYSLKPEDTGVYYCNAQKRDVSMGYWGLGTQVTVSS | high polyreactivity
QVQHVESVRGLVQAGGSLRLSCDASGIIFYSYAMGWYRQAPGKERELVARISTRGGSTYYADSVKGRFTISRDNAKNTVYLQMNSLKPEDTAVYYCAARYSRYIRFPYDYWGQGTQVTVSS | high polyreactivity
QVQHVETGGGLVQAGGSLRLSCAASGFIFAEYAMGWYRQAPGKETEEVAAITSGGSTSYADSVKGRFTISRDNAKNTVYLQMNSLKPEDTAVYYCAATWYYLYNVWKHWYEYGYWGQGTQVTVSS | low polyreactivity
QVQHVETGGGLVQAGGSLRLSCAASGIFGYNAMGGYRQAPAKERELVAGITKSGARTYYADSVKGRFTISRDNAKNTVYLQMNSLKPEDTAVYYCKAVGKRFYNDDYWGQGTQVTVSS | high polyreactivity
